This note sets out measurements from article PMC6030205, “The REN4 rheostat dynamically coordinates the apical and lateral domains of Arabidopsis pollen tubes” (Nature Communications, 2018).

For the assay, the target named is T1, MBP-REN4 (Arabidopsis, UniProt O48716 1-465).
T1 construct: REN4, Arabidopsis, AT2G26490; full length REN4 CDS with stop codon (465 aa) in pDest-566; CDS with stop codon in pDest-566 (Addgene) implies an N-terminal MBP; that vector may also add a His6 tag (surmise); also called REN4 fused with MBP; source: E. coli, purified (amylose beads)
T1 sequence (looked up): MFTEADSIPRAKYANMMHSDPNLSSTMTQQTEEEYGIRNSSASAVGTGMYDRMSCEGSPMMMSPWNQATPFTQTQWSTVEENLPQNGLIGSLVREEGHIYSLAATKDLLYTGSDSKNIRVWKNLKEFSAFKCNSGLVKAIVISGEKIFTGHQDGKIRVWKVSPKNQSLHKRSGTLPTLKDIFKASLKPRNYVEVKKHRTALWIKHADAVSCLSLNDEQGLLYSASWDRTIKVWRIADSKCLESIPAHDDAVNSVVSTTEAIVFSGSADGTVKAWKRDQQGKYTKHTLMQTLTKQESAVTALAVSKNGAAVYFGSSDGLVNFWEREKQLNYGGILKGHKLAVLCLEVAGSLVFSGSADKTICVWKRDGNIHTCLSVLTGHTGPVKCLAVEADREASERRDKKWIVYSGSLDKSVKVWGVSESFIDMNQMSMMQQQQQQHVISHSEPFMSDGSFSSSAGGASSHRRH
Kind of assay: pull-down; MBP-REN4 on amylose agarose beads; about 1 ug GST-ROP1 preloaded with 1 mM GTP or GDP; binding buffer 50 mM Tris-HCl pH 7.5, 10 mM MgCl2, 1 mM DTT, 10 mg/ml BSA, 5 mM EDTA; 4 C, 1 h; washes with 1% Triton X-100; anti-GST and anti-MBP blots. Conditions: both partners purified.

B1: GST-CA-ROP1 (G15V), GTP-bound constitutively active form of ROP1 (natural protein)
chain: not shown
notes: ROP1, Arabidopsis; full length ROP1 CDS with stop codon, mutated G15V, in pDest15; Incubated with 1 mM GTP before the pull-down; source: E. coli, purified (glutathione-agarose); not shown: GST, N-terminal, kept
As for B1, the binding result is recorded as “binds”.
